This test addresses T1, C-Met (Homo sapiens, UniProt P08581).
T1 construct: A549 cells, known to readily express the c-Met receptor; endogenous in cells; host or cells: A549 (endogenous); Cos-7 cells overexpressing c-Met
Put plainly: FACS analysis of specific binding to c-Met. To be noted: A549 cells and Cos-7 cells that overexpressed c-Met, antibody 1:100, 4° C., 1 hour, FIG. 11. Here is the method:
Whether the human modified B7 antibody according to the present invention easily binds specifically to c-Met was examined by FACS analysis. Each of A549 cells, known to readily express the c-Met receptor, and Cos-7 cells that overexpressed c-Met, was prepared, washed twice with PBS, detached by treatment with trypsin, washed again with PBS, and then suspended in PBS (PBA buffer) containing 1% BSA protein. Then, the cells were treated with the purified modified B7 antibody of Example 2 at 1:100 at 4° C. for 1 hour, after which the cells were washed with PBA buffer and precipitated by centrifugation at 8000 rpm for 1 minute. The washing and precipitation process was repeated three times. Then, the modified B7 antibody was treated for 20 minutes with a 1:100 dilution of secondary antibody (Invitrogen, Alexa Fluor 488 goat anti-human IgG, #A11013) that detects human antibody. The cells were washed in the same manner as described above and analyzed by FACS analyzer (BD Cantoll Flow Cytometer), and the results of the analysis are shown in FIG. 11.
(A flow cytometer gives signals particle by particle.)

T1 sequence (P08581 25-1390): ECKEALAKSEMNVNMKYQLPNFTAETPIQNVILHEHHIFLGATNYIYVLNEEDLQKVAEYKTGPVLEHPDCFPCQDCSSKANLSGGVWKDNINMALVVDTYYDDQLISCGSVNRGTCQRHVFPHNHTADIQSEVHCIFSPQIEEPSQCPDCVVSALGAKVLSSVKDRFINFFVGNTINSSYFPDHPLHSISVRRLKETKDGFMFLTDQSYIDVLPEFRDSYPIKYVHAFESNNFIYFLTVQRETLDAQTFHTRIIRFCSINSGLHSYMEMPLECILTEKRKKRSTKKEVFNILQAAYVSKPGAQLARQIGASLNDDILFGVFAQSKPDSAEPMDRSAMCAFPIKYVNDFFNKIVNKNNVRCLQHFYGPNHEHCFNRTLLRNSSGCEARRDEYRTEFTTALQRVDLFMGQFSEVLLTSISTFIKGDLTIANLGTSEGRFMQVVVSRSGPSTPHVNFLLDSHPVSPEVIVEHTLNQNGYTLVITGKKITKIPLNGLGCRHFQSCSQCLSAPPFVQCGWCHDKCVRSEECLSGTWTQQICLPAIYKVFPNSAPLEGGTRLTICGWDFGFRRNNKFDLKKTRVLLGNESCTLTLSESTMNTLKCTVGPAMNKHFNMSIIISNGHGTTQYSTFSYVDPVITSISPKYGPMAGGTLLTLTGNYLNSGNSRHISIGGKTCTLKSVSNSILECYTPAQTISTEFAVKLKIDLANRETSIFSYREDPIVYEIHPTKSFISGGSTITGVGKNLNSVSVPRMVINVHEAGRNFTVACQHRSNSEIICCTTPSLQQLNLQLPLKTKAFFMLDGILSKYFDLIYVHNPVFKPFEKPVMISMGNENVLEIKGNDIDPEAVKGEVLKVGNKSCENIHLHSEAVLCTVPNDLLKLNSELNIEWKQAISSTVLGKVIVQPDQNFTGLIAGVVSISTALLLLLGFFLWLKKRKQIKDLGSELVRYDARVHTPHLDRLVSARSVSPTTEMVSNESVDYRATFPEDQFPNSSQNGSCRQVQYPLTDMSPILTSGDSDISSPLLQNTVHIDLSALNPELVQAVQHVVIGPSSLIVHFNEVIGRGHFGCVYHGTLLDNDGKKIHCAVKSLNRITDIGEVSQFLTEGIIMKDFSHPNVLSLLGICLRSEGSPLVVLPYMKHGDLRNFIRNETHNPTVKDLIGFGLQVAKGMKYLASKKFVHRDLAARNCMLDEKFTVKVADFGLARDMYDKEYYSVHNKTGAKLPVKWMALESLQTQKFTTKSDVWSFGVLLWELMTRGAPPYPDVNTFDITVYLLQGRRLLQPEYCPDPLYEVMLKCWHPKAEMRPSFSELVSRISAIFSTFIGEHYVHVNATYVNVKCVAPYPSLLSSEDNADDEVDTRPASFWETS

B1: modified B7 antibody: B7 antibody with a cysteine residue added to the heavy-chain variable region (SEQ ID NO: 8); light-chain SEQ ID NO: 11 (antibody, V domains shown)
VH: MGWSYIILFLVATAADVHSQVQLQEWGAGLLKPSETLSLTCAVSGGSLSGHYWSWVRLPPGKGLEWIGEISHSGNTNYNSSLKSRASISIDTSKNEYSLNLKSVTAVDTAVYYCARFYGDYPSSYGMDVWGQGTTVTVSSC
VL: MGWSYIILFLVATAADVHSQSALTQPASVSGSPGQSITISCTGTISDIGTYDFVSWYQHKPGKAPKLLIFDVNNRPSGVSSRFSGSKSDNTASLSISGFQAEDEADYYCSSYTDNRGLVLFGGGTKLTVLRS
modifications: a heavy chain variable region with extra cysteine; a light chain variable region
Turning to B1, the “specific binding to c-Met by FACS” value was “did bind specifically to c-Met”.

B2: B7 antibody: c-Met-specific human whole IgG from B7 phage variable region; heavy-chain variable region SEQ ID NO: 7, light-chain SEQ ID NO: 11 (antibody, V domains shown)
VH: MGWSYIILFLVATAADVHSQVQLQEWGAGLLKPSETLSLTCAVSGGSLSGHYWSWVRLPPGKGLEWIGEISHSGNTNYNSSLKSRASISIDTSKNEYSLNLKSVTAVDTAVYYCARFYGDYPSSYGMDVWGQGTTVTVSS
VL: MGWSYIILFLVATAADVHSQSALTQPASVSGSPGQSITISCTGTISDIGTYDFVSWYQHKPGKAPKLLIFDVNNRPSGVSSRFSGSKSDNTASLSISGFQAEDEADYYCSSYTDNRGLVLFGGGTKLTVLRS
modifications: a heavy chain variable region; a light chain variable region
Consider B2, for which the “specific binding to c-Met by FACS” value is given as “bind specifically to c-Met”. Moreover, the “specific binding to c-Met by FACS” value (listed as original B7 antibody) is “specifically recognizes c-Met”.

The values above are taken from patent US9364556B2, “Drug conjugate comprising drug linked to human c-Met antibody, and use therefor” (Korea Research Institute of Bioscience and Biotechnology, priority 2011, dated 2016).
